Measured values published in patent US20250388684A1 (published 2025).

Tests used:
[1] = target: T1, human CCR8 (C-C chemokine receptor type 8) (human, UniProt P51685 1-355); assay: FACS cell binding; human plasma 37°C 7 Day
[2] = target: T1, human CCR8 (C-C chemokine receptor type …); assay: FACS cell binding; Control
[3] = target: T1, human CCR8 (C-C chemokine receptor type …); assay: FACS cell binding; human plasma 37°C 14 Day

T1 sequence (P51685 whole entry): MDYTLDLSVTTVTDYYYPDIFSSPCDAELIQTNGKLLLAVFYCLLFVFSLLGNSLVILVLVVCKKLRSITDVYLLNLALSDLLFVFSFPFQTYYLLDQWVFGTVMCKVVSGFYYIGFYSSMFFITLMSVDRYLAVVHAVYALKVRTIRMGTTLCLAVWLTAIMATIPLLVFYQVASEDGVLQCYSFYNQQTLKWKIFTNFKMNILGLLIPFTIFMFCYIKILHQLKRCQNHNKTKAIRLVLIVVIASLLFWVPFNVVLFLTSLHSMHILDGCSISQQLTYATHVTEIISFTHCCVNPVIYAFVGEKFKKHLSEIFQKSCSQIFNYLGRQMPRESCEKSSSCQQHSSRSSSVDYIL

B1: 13F3H6-hz-eADCC (13F3H6-hz with ADCC-enhanced IgG1 Fc) (antibody)
heavy: EVQLVESGGGLVQPGESLRLSCAASGFTFNAYAMNWVRQAPGQGLEWVARIRTKSNNYATYYADSVKGRFTISRDDSKNTLYLEMNSLRAEDTAVYYCVRHKKVREGYAMDYWGQGTLVTVSSASTKGPSVFPLAPSSKSTSGGTAALGCLVKDYFPEPVTVSWNSGALTSGVHTFPAVLQSSGLYSLSSVVTVPSSSLGTQTYICNVNHKPSNTKVDKKVEPKSCDKTHTCPPCPAPELVGGPSVFLLPPKPKDTLMISRTPEVTCVVVDVSHEDPEVKFNWYVDGVEVHNAKTKPPEEQYNSTLRVVSVLTVLHQDWLNGKEYKCKVSNKALPAPIEKTISKAKGQPREPQVYTLPPSREEMTKNQVSLTCLVKGFYPSDIAVEWESNGQPENNYKTTPLVLDSDGSFFLYSKLTVDKSRWQQGNVFSCSVMHEALHNHYTQKSLSLSPGK
light: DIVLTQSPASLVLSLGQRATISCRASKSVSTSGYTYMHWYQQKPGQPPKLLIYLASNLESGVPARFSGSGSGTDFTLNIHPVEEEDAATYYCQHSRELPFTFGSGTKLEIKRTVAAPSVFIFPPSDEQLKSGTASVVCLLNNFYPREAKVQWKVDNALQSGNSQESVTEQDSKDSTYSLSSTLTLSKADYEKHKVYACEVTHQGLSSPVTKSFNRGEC
[1]
  EC50: 0.0425 µg/mL
[2]
  EC50: 0.035 µg/mL
[3]
  EC50: 0.039 µg/mL
